These results are taken from US20150167014A1, “MODULATION OF PLANT GROWTH BY VAS1 MUTATION” (THE SALK INSTITUTE FOR BIOLOGICAL STUDIES, priority 2013, published 2015).

Substitutions are numbered along the chain they refer to. In names and notes the source's numbering stands.

Substrate in data set [1]: N[C@@H](Cc1c[nH]cn1)C(=O)O
Put plainly: Steady-state kinetic assay of VAS1 I267M transaminase activity (rate of loss of IPA at 321 nm). It counts as biochemical, Arabidopsis thaliana. Particulars: other: fixed 3-IPA 300 μM, variable L-His 0.1 to 10 mM, 0.4 μM VAS1 I267M, 100 μM PLP, pH 8.0, 23° C. As for the experimental part: (§1) FIG. 9A-B. Steady-state kinetic analyses of VAS1 I267M. […] Fixed concentration of L-His (10 mM) and variable concentrations of 3-IPA from 10 to 200 μM (A) Fixed concentration of 3-IPA (300 μM) and variable concentrations of L-His from 0.1 to 10 mM (B). Apparent KM, Vmax and kcat of VAS1 are shown above each curve and standard errors calculated from Graphpad Prism 5 software (www.graphpad.com).
(§2) The coding sequence of AtVAS1 was inserted between the NcoI and XhoI sites of the expression vector pHIS8 (“HIS8” disclosed as SEQ ID NO: 1) (a modified version of pET28a (+) containing an N-terminal 8-histidine tag (SEQ ID NO: 1)), which under the control of a T7 promoter. E. coli (BL21) cells harboring the AtVAS1 expression vector were grown in Terrific Broth at 37° C. until reaching an OD600 nm of 1.0 then cooled down to 18° C. and induced with 0.5 mM isopropyl-b-D-thiogalactoside (IPTG) and allowed to grow overnight at 18° C. for approximately 12-14 hr after. Cells were harvested by centrifugation and resuspended in lysis buffer (50 mM Tris-HCl, pH 8.0, 500 mM NaCl, 20 mM imidazole, 1% (v/v) Tween-20, 10% (v/v) glycerol, 10 mM 2-mercaptoethanol) containing lysozyme (0.5 mg/ml) at 4° C. for 1 hr and lysed by sonication. The lysate was centrifuged at 18,000 rpm for 45 min at 4° C. and then the supernatant were passed over Ni2+-NTA agarose (Qiagen). The AtVAS1 protein was eluted with lysate buffer supplemented with 250 mM imidazole after washed with wash buffer (lysis buffer without Tween-20 and glycerol). The N-terminal tag was cleaved by treatment with thrombin while dialyzing overnight in dialysis buffer (50 mM Tris-HCl, (pH8.0), 500 mM NaCl, 20 mM 2-mercaptoethanol). The thrombin and uncut AtVAS1 was removed by passing over Benzamidine Sepharose 4 Fast Flow (high sub) (GE Healthcare) and Ni2+-NTA agarose. AtVAS1 was further purified by size-exclusion chromatography using a Superdex 200 HR16/60 column. AtVAS1 fractions were combined, concentrated to approximately 12 mg ml-1 and frozen at −80° C. […]
(§3) For VAS1 I267M steady-state kinetic assays, 1 mL assay mixture contained 100 mM sodium phosphate buffer (pH 8.0), 0.4 μM recombinant VAS1 I 267M, 100 μM PLP and variable amounts of His (0.1 to 10 mM) and IPA (10 to 200 μM). The reactions were incubated at 23° C. and the OD321 nm were measured at 2-min, 5-min, 8-min, 10-min, 12-min and 15-min time points to monitor the linear rate of loss of IPA. Absorbance values were corrected to changes in IPA concentration based on an IPA standard curve. At 321 nm, absorbance from Trp was negligible. KM, kcat and Vmax were calculated by nonlinear regression analysis using GraphPad Prism 5 fits to the Michaelis-Menten equation.

Substrate in data set [2]: O=C(O)C(=O)Cc1c[nH]c2ccccc12
The data set is described as above. The following applies: other: fixed L-His 10 mM, variable 3-IPA 10 to 200 μM, 0.4 μM VAS1 I267M, 100 μM PLP, pH 8.0, 23° C. It counts as biochemical, Arabidopsis thaliana. As for the experimental part:
as §1, §2, §3

Data set [3] is described as follows: Amino donor test of VAS1 variants (19 amino acids, 3-IPA as amino acceptor). It counts as biochemical, Arabidopsis thaliana. The following applies: 19 natural amino acids (except Trp) as amino donor. As for the experimental part:
VAS1 and its variants transaminase activity was monitor by HPLC-MS with an Agilent 1100 series LC-MSD instrument and an Agilent Zorbax Eclipse XDB-C18 (4.6×150 mm, […]) reversed-phase column. Chromatographic separations employed a flow rate of 0.5 mL min-1 and a linear gradient with initial and final mobile phases consisting of 95% water: 4.9%: acetonitrile: 0.1% formic acid (v/v/v), and 5% water: 94.9% acetonitrile: 0.1% formic acid (v/v/v), respectively. VAS1 mutants relative activity assays were conducted in a 200 μL volume containing 50 mM L-Met (with the exception of L-Trp), 10 mM IPA, 200 μM PLP and 10 μg of purified VAS1 or VAS1 variants protein in a reaction buffer consisting of 50 mM K2HPO4/KH2PO4 (pH 8.5). To further test the best amino donor of I267M and I267F mutant, one of 19 other amino acids (with the exception of L-Trp) was taking the place of L-Met. […] Relative specific activities were calculated after integration of the Trp peak (based on the absorbance at 254 nm) and the activity against Met and IPA was arbitrarily set to 100% for VAS1 variants M19V, M19I, M19F, I267V, 1267 M and I267F. […]

Data set [4] deals with the molecule itself. Put plainly: X-ray crystal structure of VAS1•PLP complex.

B1: Arabidopsis thaliana aminotransferase VAS1 (AtVAS1, NCBI Accession No. NP—178152, SEQ ID NO: 14), variant I267M (Ile267Met) (Arabidopsis thaliana; I267M) (protein)
chain: MGSFGMLSRRTLGTDMPVMAQIRSLMAELTNPMSLAQGVVHWQPPQKALEKVKELVWDPIISSYGPDEGLPELRQALLKKLREENKLTNSQVMVTAGANQAFVNLVITLCDAGDSVVMFEPYYFNSYMAFQMTGVTNIIVGPGQSDTLYPDADWLERTLSESKPTPKVVTVVNPGNPSGTYVPEPLLKRIAQICKDAGCWLIVDNTYEYFMYDGLKHCCVEGDHIVNVFSFSKTYGMMGWRLGYIAYSERLDGFATELVKIQDNIPMCAAIISQRLAVYALEEGSGWITERVKSLVKNRDIVKEALEPLGKENVKGGEGAIYLWAKLPEGHRDDFKVVRWLAHRHGVVVIPGCASGSPGYLRVSFGGLQEVEMRAAAARLRKGIEELLHHGMVE
notes: I267M by QuikChange mutagenesis
On to B1, for which, in data set [1], the Km (in general, the concentration of substrate that gives half-maximal velocity) was found to be 534 µM and the kcat (as a rule, the maximal rate divided by the concentration of active sites) was 0.0392 s⁻¹. Also, in data set [2], the Km was 62.4 µM and the kcat turned out to be 0.0447 s⁻¹.

B2: VAS1: wild-type pyridoxalphosphate-dependent aminotransferase of Arabidopsis thaliana (protein)
chain: B1 chain with M267I
As to B2, the “aminotransferase activity / most efficient amino donor” value in data set [3] is “Met is the most suitable amino donor”.

B3: Arabidopsis thaliana aminotransferase VAS1 (enzyme)
chain: B1 chain with M267I
modifications: PLP (pyridoxal phosphate) bound as internal aldimine to the epsilon-amino group of Lys 233
notes: The protein crystallised as a symmetric homodimer with PLP; also called AtVAS1
Turning to B3, the binding result in data set [4] is on record as “binds”.
